Results as given in article doi:10.1101/2022.12.02.518933.

Target: AF647-labeled cysteine-less BtuCD Q111C reconstituted into nanodiscs (E. coli) (UniProt P06609)
Test: FRET or BRET

| k fast (double exponential, green emission on addition of BtuCD*) | k slow (double exponential, green emission on addition of BtuCD*) | k fast (double exponential, with AMPPNP) | k fast (double exponential; initial single-lobe association) | k slow (double exponential, with AMPPNP) | k slow (double exponential; locking) | Binder |
| --- | --- | --- | --- | --- | --- | --- |
| 0.124 s⁻¹ | 0.016 s⁻¹ | – | – | – | – | AF546-labeled BtuF harboring the E202A mutation (natural protein, Alexa Fluor 546 C5 maleimide on the cysteine appended to the C-terminus) APRVITLSPANTELAFAAGITPVGVSSYSDYPPQAQKIEQVSTWQGMNLERIVALKPDLVIAWRGGNAERQVDQLASLGIKVMWVDATSIEQIANALRQLAPWSPQPDKAEQAAQSLLDQYAQLKAQYADKPKKRVFLQFGINPPFTSGKESIQNQVLEVCGGENIFKDSRVPWPQVSRAQVLARSPQAIVITGGPDQIPKIKQYWGEQLKIPVIPLTSDWFERASPRIILAAQQLCNALSQVD |
| – | – | 0.108 s⁻¹ | 0.158 s⁻¹ | 0.009 s⁻¹ | 0.025 s⁻¹ | AlexaFluor 546 (AF546)-labeled E. coli BtuF (natural protein, Alexa Fluor 546 C5 maleimide on the cysteine appended to the C-terminus) APRVITLSPANTELAFAAGITPVGVSSYSDYPPQAQKIEQVSTWQGMNLERIVALKPDLVIAWRGGNAERQVDQLASLGIKVMWVDATSIEQIANALRQLAPWSPQPDKAEQAAQSLLDQYAQLKAQYADKPKKRVFLQFGINPPFTSGKESIQNQVLEVCGGENIFKDSRVPWPQVSREQVLARSPQAIVITGGPDQIPKIKQYWGEQLKIPVIPLTSDWFERASPRIILAAQQLCNALSQVD |
